These results are taken from US10766952B2, “Methods for reducing migraine frequency in a subject in need thereof” (Beth Israel Deaconess Medical Center, Inc., priority 2017, dated 2020).

B1: M23: G1 variant: L1 R28G; HC-FW3 L99T,A100V (antibody, V domains shown)
VH: EVQLVESGGGLVQPGGSLRLSCAASGFTFSNYWISWVRQAPGKGLEWVAEIRSESDASATHYAEAVKGRFTISRDNAKNSLYLQMNSLRAEDTAVYYCTVYFDYGLAIQNYWGQGTLVTVSS
VL: EIVLTQSPATLSLSPGERATLSCKASKGVTTYVSWYQQKPGQAPRLLIYGASNRYLGIPARFSGSGSGTDFTLTISSLEPEDFAVYYCSQSYNYPYTFGQGTKLEIK
B2: M26: G1 variant: L1 R28N; H2 A57G; HC-FW3 L99T,A100V (antibody, V domains shown)
VH: B1 VH with A57G
VL: B1 VL with G28N
B3: M35: G1 variant: L1 R28N,T30G; H2 E54K,A57S; HC-FW3 L99T,A100V (antibody, V domains shown)
VH: B1 VH with E54K, A57S
VL: B1 VL with G28N, T30G
B4: M39: G1 variant: L1 R28N; L2 G50A,L56T; H2 A57N,S58Y; HC-FW3 L99T,A100V (antibody, V domains shown)
VH: B1 VH with A57N, S58Y
VL: B1 VL with G28N, G50A, L56T
B5: M33: G1 variant: L1 R28N,T30G; H2 E54K,A57N,S58G; HC-FW3 L99T,A100V (antibody, V domains shown)
VH: B1 VH with E54K, A57N, S58G
VL: B1 VL with G28N, T30G
B6: M42: G1 variant: L1 R28N; L2 G50A,L56T; H2 E54K,A57N,H61F; HC-FW3 L99T,A100V (antibody, V domains shown)
VH: B1 VH with E54K, A57N, H61F
VL: B1 VL with G28N, G50A, L56T
B7: M36: G1 variant: L1 R28N,T30R; HC-FW3 L99T,A100V (antibody, V domains shown)
VH: B1 VH
VL: B1 VL with G28N, T30R
B8: M28: G1 variant: L1 R28N,T30D; H2 E54R,A57N; HC-FW3 L99T,A100V (antibody, V domains shown)
VH: B1 VH with E54R, A57N
VL: B1 VL with G28N, T30D
B9: M27: G1 variant: L1 R28N,T30A; HC-FW3 L99T,A100V (antibody, V domains shown)
VH: B1 VH
VL: B1 VL with G28N, T30A
B10: M40: G1 variant: L1 R28N; L2 G50A,L56T; H2 E54K,A57L; HC-FW3 L99T,A100V (antibody, V domains shown)
VH: B1 VH with E54K, A57L
VL: B1 VL with G28N, G50A, L56T
B11: M34: G1 variant: L1 R28N,T30G; H2 E54K,A57N,S58T; HC-FW3 L99T,A100V (antibody, V domains shown)
VH: B1 VH with E54K, A57N, S58T
VL: B1 VL with G28N, T30G
B12: M25: G1 variant: L1 R28N; HC-FW3 L99T,A100V (antibody, V domains shown)
VH: B1 VH
VL: B1 VL with G28N
B13: M31: G1 variant: L1 R28N,T30G; H2 E54K,A57G; HC-FW3 L99T,A100V (antibody, V domains shown)
VH: B1 VH with E54K, A57G
VL: B1 VL with G28N, T30G
B14: M37: G1 variant: L1 R28N,T30S; H2 A57G; HC-FW3 L99T,A100V (antibody, V domains shown)
VH: B1 VH with A57G
VL: B1 VL with G28N, T30S
B15: M29: G1 variant: L1 R28N,T30G; HC-FW3 L99T,A100V (antibody, V domains shown)
VH: B1 VH
VL: B1 VL with G28N, T30G
B16: M30: G1 variant: L1 R28N,T30G; H2 E54K,A57E; HC-FW3 L99T,A100V (antibody, V domains shown)
VH: B1 VH with E54K, A57E
VL: B1 VL with G28N, T30G
B17: M38: G1 variant: L1 R28N,T30W; HC-FW3 L99T,A100V (antibody, V domains shown)
VH: B1 VH
VL: B1 VL with G28N, T30W
B18: M43: G1 variant: L1 R28N; L2 G50A,L56T; H2 E54K,A57N,S58C; HC-FW3 L99T,A100V (antibody, V domains shown)
VH: B1 VH with E54K, A57N, S58C
VL: B1 VL with G28N, G50A, L56T
B19: M44: G1 variant: L1 R28N; L2 G50A,L56T; H2 E54K,A57N,S58E; HC-FW3 L99T,A100V (antibody, V domains shown)
VH: B1 VH with E54K, A57N, S58E
VL: B1 VL with G28N, G50A, L56T
B20: M32: G1 variant: L1 R28N,T30G; H2 E54K,A57H; HC-FW3 L99T,A100V (antibody, V domains shown)
VH: B1 VH with E54K, A57H
VL: B1 VL with G28N, T30G
B21: M24: G1 variant: L1 R28L; HC-FW3 L99T,A100V (antibody, V domains shown)
VH: B1 VH
VL: B1 VL with G28L
B22: M41: G1 variant: L1 R28N; L2 G50A,L56T; H2 E54K,A57N,E64D; HC-FW3 L99T,A100V (antibody, V domains shown)
VH: B1 VH with E54K, A57N, E64D
VL: B1 VL with G28N, G50A, L56T

Positions count from the first letter of the chain named. Names may count otherwise.

The first test addresses T1, human α-CGRP (Homo sapiens, UniProt P06881).
T1 construct: 1-37 (WT); purchased; host or cells: synthetic peptide
T1 sequence (P06881 83-119 limits assumed): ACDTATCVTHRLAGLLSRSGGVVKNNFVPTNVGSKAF
As to the kind of experiment: Biacore affinity of antibody G1 Fab and variants to human α-CGRP. The class given is binding. To be noted: 37° C., Fab, screening mode unless underlined. How it is done:
(§1) Biacore assay for affinity determination. […] All Biacore assays were conducted in HBS-EP running buffer (10 mM HEPES pH 7.4, 150 mM NaCl, 3 mM EDTA, 0.005% v/v polysorbate P20). CGRP surfaces were prepared by diluting the N-biotinylated CGRP to a concentration of less than 0.001 mg/mL into HBS-EP buffer and injecting it across the SA sensor chip using variable contact times. Low capacity surfaces, corresponding to capture levels <50 response units (RU) were used for high-resolution kinetic studies, whereas high capacity surfaces (about 800 RU of captured CGRP) were used for concentration studies, screening, and solution affinity determinations. […] Samples were typically injected for lminute at 100 μL/min and dissociation times of at least 10 minutes were allowed. After each binding cycle, surfaces were regenerated with 25 mM NaOH in 25% v/v ethanol, which was tolerated over hundreds of cycles. An entire titration series (typically generated in duplicate) was fit globally to a 1:1 Langmuir binding model using the BlAevaluation program. This returned a unique pair of association and dissociation kinetic rate constants (respectively, kon and koff) for each binding interaction, whose ratio gave the equilibrium dissociation constant (KD=koff/[…]).
(§2) High-resolution analysis of binding interactions with extremely slow offrates. […] The protocol described above was used with the following modifications. The association rate constant (kon) was determined by injecting a 2-fold titration series (in duplicate) spanning 550 nM-1 nM for 30 seconds at 100 μL/min and allowing only a 30 second dissociation phase. The dissociation rate constant (koff) was determined by injecting three concentrations (high, medium, and low) of the same titration series in duplicate for 30 seconds and allowing a 2-hour dissociation phase. The affinity (KD) of each interaction was obtained by combining the kon and koff values obtained in both types of experiments, as shown in Table 4.
(§3) The binding affinities of Fab fragments were determined by Biacore by flowing them across CGRPs on a SA chip.
B1 displayed a α-human koff of 0.00013 s⁻¹.
In turn, B2 had a α-human koff of 0.000148 s⁻¹.
In the case of B3, the α-human koff was 0.000339 s⁻¹.
Consider B4, for which the α-human koff amounted to 0.000425 s⁻¹.
B5 showed a α-human koff of 0.00075 s⁻¹.
B6 returned a α-human koff of 0.000417 s⁻¹.
The molecule B7 showed a α-human koff of 0.000239 s⁻¹.
In the case of B8, the α-human koff came to 9.96e-05 s⁻¹.
Still for that read-out and setting: under B9 stands 0.000357 s⁻¹; under B10, 0.00128 s⁻¹; under B11, 0.000646 s⁻¹.
On to B12, for which the α-human koff is 0.00014 s⁻¹.
Still for that read-out and setting: for B13 the value was 0.000347 s⁻¹.
B14: the α-human koff turned out to be 0.000226 s⁻¹.
Still for that read-out and setting: under B15 stands 0.00038 s⁻¹; under B16, 0.00059 s⁻¹; under B17, 0.000218 s⁻¹.
On the same count and under the same terms, for B18 the value was 0.000263 s⁻¹; for B19, 0.00021 s⁻¹; for B20, 0.000271 s⁻¹.
On the same count and under the same terms, under B21 stands 0.000148 s⁻¹; under B22, 0.00021 s⁻¹.

In the next test the target is T2, rat α-CGRP (Rattus norvegicus, UniProt P01256).
T2 construct: rat α (1-37); host or cells: synthetic peptide
T2 sequence (P01256 83-119 limits assumed): T1 sequence (P06881 83-119 limits assumed) with A1S, D3N, N25D, K35E
As to the kind of experiment: Biacore affinity of antibody G1 Fab and variants to rat α-CGRP. The class given is binding. To be noted: 37° C., Fab, screening mode unless underlined. As to the method:
as §1, §2, §3
The molecule B1 registered a α-rat koff of 0.000799 s⁻¹.
On the same count and under the same terms, under B2 stands 0.000924 s⁻¹; under B3, 0.00399 s⁻¹; under B4, 0.00995 s⁻¹.
On the same count and under the same terms, under B5 stands 0.00922 s⁻¹.
On the same count and under the same terms, for B6 the value was 0.00752 s⁻¹; for B7, 0.00479 s⁻¹; for B8, 0.00125 s⁻¹.
On to B9, for which the α-rat koff is 0.00341 s⁻¹.
The same measure, in the same setting: for B10 the value was 0.36 s⁻¹; for B11, 0.00217 s⁻¹.
On the same count and under the same terms, under B12 stands 0.0014 s⁻¹; under B13, 0.00361 s⁻¹; under B14, 0.00145 s⁻¹.
Take B15: the α-rat koff came out at 0.00359 s⁻¹.
For the molecule B16, the α-rat koff is 0.00638 s⁻¹.
The same measure, in the same setting: for B17 the value was 0.00511 s⁻¹.
Consider B18, for which the α-rat koff turned out to be 0.00453 s⁻¹.
Still for that read-out and setting: for B19 the value was 0.00613 s⁻¹.
Same read-out and setting: for B20 the value was 0.00296 s⁻¹; for B21, 0.00104 s⁻¹; for B22, 0.00453 s⁻¹.
